Test results published in US20030235860A1, “Interactions between AR, ER, TR2, and TR4” (priority 1999, published 2003).
No end group written: not given here.

T1: ER (Homo sapiens, UniProt P03372, G400V)
T1 construct: Full-length ER and TR2 in eukaryotic expression vectors (pSG5-ER and pCMV-TR2) were co-transfected; expressed in transfected cells; host or cells: PC-3 and H1299 (pSG5-ER transfected)
T1 sequence (P03372 1-595 G400V): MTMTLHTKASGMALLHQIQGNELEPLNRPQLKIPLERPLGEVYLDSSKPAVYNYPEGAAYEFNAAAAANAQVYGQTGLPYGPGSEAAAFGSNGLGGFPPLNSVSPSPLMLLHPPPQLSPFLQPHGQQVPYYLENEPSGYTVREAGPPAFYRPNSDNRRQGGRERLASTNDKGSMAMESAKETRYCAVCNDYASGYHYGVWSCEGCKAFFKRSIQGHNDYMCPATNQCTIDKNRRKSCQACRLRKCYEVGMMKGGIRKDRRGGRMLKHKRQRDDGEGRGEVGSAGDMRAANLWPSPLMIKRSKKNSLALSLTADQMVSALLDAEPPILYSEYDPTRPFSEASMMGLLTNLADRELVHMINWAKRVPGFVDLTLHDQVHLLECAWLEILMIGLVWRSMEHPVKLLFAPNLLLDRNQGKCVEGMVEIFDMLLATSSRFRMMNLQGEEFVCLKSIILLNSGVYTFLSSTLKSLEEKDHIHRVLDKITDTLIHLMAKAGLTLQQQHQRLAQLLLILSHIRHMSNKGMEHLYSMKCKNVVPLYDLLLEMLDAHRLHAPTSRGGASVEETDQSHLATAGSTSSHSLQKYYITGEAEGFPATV


Target: T1, ER
Assay: ER-mediated transactivation reporter assay (ERE-CAT / ERE-Luc)
Assay type: cell-based
Details: for Activity ER (effect of regulator on transcription activity): Table 5
Description: Transfections and chloramphenicol acetyltransferase (CAT) assays were performed as described previously. Yeh, & Chang, Proc. Natl. Acad. Sci. 93, 5517-5521 (1996). Briefly, 4×10^5 cells were plated in 60-mm dishes and cultured for 24 h, and then the medium was changed to phenol red free DMEM with 5% charcoal-stripped FCS 2 h before transfection. The cells were co-transfected with TR2 and/or ER expression plasmids with 2 μg of TR2-TK-CAT reporter or 1 μg of ERE-CAT reporter gene plasmid, as indicated in the Figures, by using the calcium phosphate precipitation method. A β-gal actosidase expression plasmid, pCMV-β-gal, was transfected in all transfections as an internal control for normalizing transfection efficiency. The total amount of DNA was adjusted up to 10.5 μg with parent vectors, pSG5 or pCMV in each transcriptional activity assay. […] The cells were then harvested and whole cell extracts were used for CAT assay. The CAT activity was quantitated by Phosphorlmager (Molecular Dynamics). Data are presented as means±S.D. of at least three independent experiments.
Transfections and chloramphenicol acetyltransferase (CAT) assays were performed using the calcium phosphate precipitation method, as described previously (Yeh, S. et al. (2000) Proc. Natl. Acad. Sci. USA 97, 11256-61). CAT reporter plasmids containing one copy of estrogen response element (ERE-CAT), or mouse mammary tumor virus (MMTV-CAT) were used as indicated. Also, a β-galactosidase expression plasmid, pCMV-β-gal, was used for transfection efficiency.
H1299 and MCF-7 cells were maintained in Dulbecco's modified eagle medium (DMEM) containing penicillin (25 units/ml), streptomycin (25 μg/ml), and 10% fetal calf serum (FBS). Transfections were performed using the calcium phosphate precipitation method, as described previously (Lee, Y. et al. (1999) Proc. Natl. Acad Sci. USA. 96(26) 14724-9). Briefly, 3×10^5 cells were plated on 60-mm dishes for 24 h before transfection, and the medium was changed to DMEM with 10% charcoal/dextran-stripped FBS. H1299 cells were transfected with an ER expression plasmid (pSG5-ER or pCMV-mERβ, ERE-chloramphenicol acetyltransferase (ERE-CAT) or pSG5-PR and MMTV-Luciferase reporter plasmid, and a TR4 expression plasmid (pCMV-TR4) ERZ-CAT Bradshaw et al., (1991) J. Biol. Chem. 266:16684-16690 and pCMVB-gal and PSV-RL from promega, all of which are herein incorporated by reference at least for material related to plasmids and assays, including sequence.) MCF-7 cells were only transfected with ERE-CAT reporter and TR4 expression plasmid. For all transfection experiments, pCMVβ-gal (CAT assay) or pSV-40 RL (Luciferase assay) was used as an internal control for transfection efficiency and the total amount of transfected DNA was adjusted to 12 μg with pCMV. […] After another 24 h, the cells were harvested for CAT assay or Luciferase assay. The CAT activity was visualized by Phosphorlmager (Molecular Dynamics) and quantitated by IMAGEQUANT software (Molecular Dynamics). The luciferase activity was determined by the Luminometer (Turner Designs).

Row | Effect on TR2-mediated suppression of ER transcription (ERE-CAT) (MCF7-TR2 cells, E2 and doxycycline) | ER transcription (ERE-luciferase) (MCF7 cells, increasing amounts of plasmid) | ERE-CAT activity (MCF-7-TR4 cells, 2 μg/ml Dox-induced TR4) | Endogenous ER-mediated CAT reporter activity (MCF-7 cells, increasing TR4) | Molecule | E2-induced ER transcription (ERE-CAT) (MCF7-TR2 cells, doxycycline-induced TR2) | ERE-CAT activity, transfected ER (PC-3 and H1299 cells, 10 nM E2, increasing TR2 expression vector) | Endogenous ER-mediated ERE-CAT activity (T47D cells, increasing TR2 expression plasmid) | Activity ER (effect of regulator on transcription activity) | ER-mediated transcription (ERE-CAT or ERE-luciferase) (exogenous ER (PC-3, H1299) or endogenous ER (MCF7, T47D), Example 2) | E2-induced ERE-CAT activity, ERα (H1299 cells, 10 nM E2, increasing TR4 expression plasmid) | ER transactivation (ERE-CAT) (H1299 cells, ERα, 10 nM E2, full-length or C-terminal deletion TR4)
1 | reversing this suppression | enhance ER transcription | – | – | ER-#6: interaction blocker, ER fragment aa 312-340, as HA-tagged peptide, expression plasmid or cleaved peptide (ADQMVSALLDAEPPILYSEYDPTRPFSEA; also: HA tag (position not given here); UniProt P03372 312-340, looked up, fragment) | – | – | – | – | – | – | –
2 | – | – | – | – | TR2: human testicular orphan nuclear receptor 2, 603 amino acids (protein, UniProt P13056 1-603, looked up, full-length, human testicular orphan nuclear receptor 2, 603 amino acids) MATIEEIAHQIIEQQMGEIVTEQQTGQKIQIVTALDHNTQGKQFILTNHDGSTPSKVILARQDSTPGKVFLTTPDAAGVNQLFFTTPDLSAQHLQLLTDNSPDQGPNKVFDLCVVCGDKASGRHYGAVTCEGCKGFFKRSIRKNLVYSCRGSKDCIINKHHRNRCQYCRLQRCIAFGMKQDSVQCERKPIEVSREKSSNCAASTEKIYIRKDLRSPLTATPTFVTDSESTRSTGLLDSGMFMNIHPSGVKTESAVLMTSDKAESCQGDLSTLANVVTSLANLGKTKDLSQNSNEMSMIESLSNDDTSLCEFQEMQTNGDVSRAFDTLAKALNPGESTACQSSVAGMEGSVHLITGDSSINYTEKEGPLLSDSHVAFRLTMPSPMPEYLNVHYIGESASRLLFLSMHWALSIPSFQALGQENSISLVKAYWNELFTLGLAQCWQVMNVATILATFVNCLHNSLQQDKMSTERRKLLMEHIFKLQEFCNSMVKLCIDGYEYAYLKAIVLFSPDHPSLENMEQIEKFQEKAYVEFQDYITKTYPDDTYRLSRLLLRLPALRLMNATITEELFFKGLIGNIRIDSVIPHILKMEPADYNSQIIGHSI | significantly repressed | suppression of ER transactivation in a dose-dependent manner | repress | Down | consistently suppressed | – | –
3 | – | – | repress | gradual decrease | TR4: human testicular orphan nuclear receptor 4, SEQ ID NO:16; expressed from plasmid or in vitro translated (protein) MTSPSPRIQIISTDSAVASPQRIQGSEPASGPLSVFTSLNKEKIVTDQQTGQKIQIVTAVDASGSPKQQFILTSPDGAGTGKVILASPETSSAKQLIFTTSDNLVPGRIQIVTDSASVERLLGKTDVQRPQVVEYCVVCGDKASGRHYGAVSCEGCKGFFKRSVRKNLTYSCRSSQDCIINKHHRNRCQFCRLKKCLEMGMKMESVQSERKPFDVQREKPSNCAASTEKIYIRKDLRSPLIATPTFVADKDGARQTGLLDPGMLVNIQQPLIREDGTVLLATDSKAETSQGALGTLANVVTSLANLSESLNNGDTSEIQPEDQSASEITRAFDTLAKALNTTDSSSSPSLADGIDTSGGGSIHVISRDQSTPIIEVEGPLLSDTHVTFKLTMPSPMPEYLNVHYICESASRLLFLSMHRARSIPAFQGLGQDCNTSLVRACWNELFTLGLAQCAQVMSLSTILAAIVNHLQNSIQEDKLSGDRIKQVMEHIWKLQEFCNSMANWDIDGYEYAYLKAIVLFSPDHPGLTSTSQIEKFQEKAQMELQDYVQKTYSEDTYRLARILVRLPALRLMSSNITEELFFTGLIGNVSIDSIIPYILKMETAEYNGQITGVSL | – | – | – | Down | – | suppression of the E2-induced CAT activity in a dose-dependent manner | repress ER transactivation in a dose-dependent manner
